Experimental data taken from the supplement of paper PMC11865577.

Assays:
Experiment in all cases: pull-down binding Z-score (relative to library population); higher = stronger binding
[1] = system: G-clamp-N3 (biotin conjugate); conditions: RNA library: Library-1 (pre-miRNA loops + repeats)
In short: (§1)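 Binding is given as a Z-score against the library mean and standard deviation, calculated after removing the beads-only signal and averaging barcoded replicate probes without their highest and lowest values. Cy5- or Cy3-end-labelled RNA library (1 μg) was heat-folded in phosphate/NaCl/KCl buffer and incubated 60 min at 25 °C with streptavidin beads bearing 100 pmol of biotin-conjugated small molecule. After three washes, RNA eluted in hot SDS was hybridised to a DNA barcode microarray for 20 h at 55.5 °C.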

[2] = system: TO-3-N3 (biotin conjugate); conditions: RNA library: Library-2
In short: as §1

[3] = system: TO-3-N3-2 (biotin conjugate); conditions: RNA library: Library-2
In short: as §1

TO-N3 (biotin conjugate) = conditions: RNA library: Library-2
In short: as §1

[4] = system: TO-N3-2 (biotin conjugate); conditions: RNA library: Library-2
In short: as §1

Sequence | pull-down binding Z-score [1] | pull-down binding Z-score [2] | pull-down binding Z-score [3] | pull-down binding Z-score (TO-N3 (biotin conjugate)) | pull-down binding Z-score [4]
GAUUCUUGAGGCUUGGAAGAGUAAGGAUC [hsa-mir-6866] | -0.0295 | -0.0976 | 0.281 | 0.34 | 1.07
GAUUGAAGUUGAAUAGUGC [hsa-mir-3161] | 0.429 | -0.231 | 0.274 | -0.125 | 0.0514
GAUUGCUAAUAGUACCAAUC [hsa-mir-34c] | -0.0934 | 0.967 | -0.216 | 0.79 | -0.636
GAUUGGUCUGUGGUCCUCUC [hsa-mir-3615] | 0.109 | -0.569 | -0.217 | -0.565 | 0.498
GAUUGGUUAGCCUAAGACUUGUUCUGAUCCAAUC [hsa-mir-5701-1_5701-2_5701-3] | -0.75 | 0.546 | 0.14 | 0.513 | 0.061
GAUUUCUAUGAGAACAUC [hsa-mir-3675] | -0.499 | -0.704 | -0.57 | -1.02 | -0.95
GAUUUUUUAGAUUCUAAAGAAAC [hsa-mir-1255a] | -1.12 | -0.837 | -0.365 | -1.02 | -1.27
GCAAGGCUGUAGUGUGCACAGCCUUGA [hsa-mir-4452] | -0.383 | 0.945 | 0.127 | 0.936 | 0.583
GCAAGGUUGUUGGUGAUAUGGCUUCCUCUC [hsa-mir-4685] | 0.872 | -0.179 | 0.0915 | 0.0508 | 0.538
GCAAUCAGGACUGGGUCAUUC [hsa-mir-6873] | -0.628 | 0.38 | 0.166 | 0.572 | 0.291
GCACCUGUUUGUGAC [hsa-mir-4718] | -1.21 | -0.491 | -0.276 | -0.457 | -0.201
GCACUCUGUAGUUUGGGUACACAGUGC [hsa-mir-5011] | 1.49 | -0.741 | -0.259 | -0.77 | -0.478
GCAGAAAUCACUCCAGGAGCAACUGA [hsa-mir-936] | -0.3 | -0.365 | 0.0585 | 0.625 | 0.712
GCAGAGAAGACAGUGAGCUUGCCAGUUCUGGUUUCCAACACUUCCUUUCCUGCG [hsa-mir-3911] | -1.12 | 0.56 | 0.236 | 0.975 | 1.3
GCAGAGCAGGACGCCGCUGCUGC [hsa-mir-8072] | -0.0779 | 0.701 | 0.0817 | 0.817 | 1.65
GCAGAUAGUGGUCCUCUCCGUGCUACCGC [hsa-mir-106b] | -0.198 | -0.0735 | -0.0832 | 0.316 | 1.16
GCAGAUUCUCUCUCUC [hsa-mir-4279] | -1.39 | 0.105 | -0.0368 | 0.189 | 0.316
GCAGCACUGUGCUGGGGAUGUUGC [hsa-mir-1301] | 1.24 | 1.08 | 0.078 | 1.04 | 0.858
GCAGCAGGCACCUGCUUCC [hsa-mir-6868] | -0.816 | 0.367 | 0.16 | 0.984 | 1.49
GCAGCCAGUCCUGUCUCACCGC [hsa-mir-6812] | -0.666 | -0.19 | -0.105 | 0.14 | 1.08
GCAGCCUUCUGCCUUUGGCUUUCUGAAGCGAGCUGA [hsa-mir-7158] | -0.699 | 0.327 | 0.292 | 0.769 | 1.09
GCAGCCUUGC [hsa-mir-4298] | 0.364 | 0.177 | -0.244 | 0.264 | 0.0238
GCAGCUAGUAAUAUGAGCCCAGUUGC [hsa-mir-153-2] | -0.831 | 0.0352 | -0.0986 | -0.011 | 0.128
GCAGCUAGUAUUCUCACUCCAGUUGC [hsa-mir-153-1] | -1.31 | -0.447 | -0.655 | -0.204 | 0.592
GCAGCUGGAAUUCAAGCCCUGCUGC [hsa-mir-6882] | -0.0183 | -0.477 | -0.319 | -0.475 | 0.0816

Sequence | pull-down binding Z-score [1] | pull-down binding Z-score [2] | pull-down binding Z-score [3] | pull-down binding Z-score (TO-N3 (biotin conjugate)) | pull-down binding Z-score [4]
GCAGGCCGUGAACUCGUCGAGCUGCGCGUGCGGCCGGUGCUCA [hsa-mir-1199] | 0.693 | 0.55 | 0.103 | 1.47 | 2.02
GCAGGGACCCCUCCAAGUUGGGGACGGCAGC [hsa-mir-6858] | -0.0891 | 0.172 | 0.0497 | 0.676 | 1.09
GCAGGUAGCUUUUUGAGAUCUACUGC [hsa-mir-106a] | 0.281 | -0.704 | -0.00277 | -0.711 | -0.248
GCAGUCCUGUGGGAAUGAGAGAUGCCAAACUGGACCUGC [hsa-mir-3972] | 1.52 | 0.53 | 0.373 | 1.4 | 1.38
GCAGUCUGCUUUGUGCCAACACUGGGGUGAUGACUGC [hsa-mir-3157] | 1.23 | 0.502 | -0.203 | 0.442 | 0.186
GCAGUGUCGUGGUCACAGCUUGCUGC [hsa-mir-1273h] | 1.45 | -0.396 | -0.171 | -0.0941 | 1.12
GCAUAAAAACAACUUUUGGGGGACAGGUAUGUUUUCUUGC [hsa-mir-5047] | 0.0757 | 2.96 | 2.38 | 2.3 | 0.797
GCAUAUAGAGUAUAUGC [hsa-mir-4657] | 0.625 | -0.323 | 0.0599 | -0.435 | -0.526
GCAUCCAGACAGCGGGCGAAUGC [hsa-mir-6836] | 0.0557 | -0.0821 | -0.113 | 0.33 | 1.13
GCAUCCUUGGAAUCUGCACUCAAGGGAUGC [hsa-mir-5089] | 0.605 | 0.451 | -0.0765 | 0.358 | 0.0295
GCAUGCCC [hsa-mir-1178] | -0.547 | 0.196 | 0.000996 | 0.287 | 0.552
GCAUGGGGCUAGGAGGCCCCGCGC [hsa-mir-6825] | -0.292 | 0.451 | 0.00553 | 0.391 | 0.142
GCAUUUUAUCUAAGAUACACACAAAGCAAAUGC [hsa-mir-4439] | -1.12 | 0.441 | 0.179 | 0.118 | -0.81
GCCACAUGAGCUGGGCCUCGUGGGC [hsa-mir-770] | -0.657 | 0.237 | -0.342 | 0.189 | 0.565
GCCAGACAUGCUCUUGC [hsa-mir-6894] | -1.34 | -0.504 | -0.349 | -0.472 | 0.707
GCCAGAUGCUGAGCGAUGGC [hsa-mir-4730] | 0.503 | -0.32 | -0.12 | -0.217 | 0.603
GCCAGCAACCUGAUUACCCCUCUUUGGC [hsa-mir-6851] | -0.819 | -0.53 | -0.495 | -0.552 | 0.533
GCCAGUCAGCGCUCACAUUAAGGCUGAC [hsa-mir-2277] | -0.612 | -0.289 | -0.0851 | -0.222 | 0.0682
GCCAGUGUGUAAAAUGAGAACUGAUA [hsa-mir-3074] | 0.474 | 0.677 | 0.757 | 1.14 | 1.66
GCCAGUGUUCAAGGGCCCCUCCUCUAGUACUCCCUGUUUGUGUUCUGCCACUGA [hsa-mir-6857] | -0.797 | 0.324 | 0.527 | 1.1 | 1.37
GCCAUCUGGUUGUGACAUCACUGAUGGC [hsa-mir-7155] | -0.231 | 1.09 | 0.0839 | 0.932 | 0.128
GCCAUGGAAAGUAAUGGC [hsa-mir-548ax] | 0.538 | -0.0453 | -0.112 | -0.269 | 0.319
GCCCCAGGGCAGGGGC [hsa-mir-4515] | 1.01 | -0.247 | -0.473 | -0.583 | -0.972
GCCCGCUGUGUUCACUCGGGC [hsa-mir-602] | 0.773 | -0.169 | -0.556 | -0.398 | -0.52
GCCCGGGCACCGCCCCUU [hsa-mir-718] | -1.53 | -0.0729 | -0.109 | 0.203 | 0.973

Sequence | pull-down binding Z-score [1] | pull-down binding Z-score [2] | pull-down binding Z-score [3] | pull-down binding Z-score (TO-N3 (biotin conjugate)) | pull-down binding Z-score [4]
GCCCUGGGCCGGGCGAUGUCCGCUUGGGGG [hsa-mir-6090] | -0.223 | 0.811 | 0.149 | 1.11 | 1.41
GCCGCGGAAGAAGGGGAAGCGC [hsa-mir-6720] | 2.21 | 1.46 | 0.61 | 1.61 | 1.86
GCCGGAGCGGGC [hsa-mir-1181] | 1.74 | 0.493 | 0.0808 | 0.703 | 0.58
GCCGGGGCCUGGCGCUCCUCUACCUUGUCAGGUGACCCAGC [hsa-mir-4274] | -1.05 | 0.564 | -0.179 | 0.538 | 0.434
GCCUCCUGGAUCUCUAGGUCUCAGGGC [hsa-mir-6744] | -0.189 | -0.282 | -0.302 | -0.272 | 0.118
GCCUCGCUUCCUGCCGGCGCGGC [hsa-mir-1538] | -0.287 | -0.255 | -0.601 | -0.389 | 0.147
GCCUCUCUGAGCAUGCAUUCCUGAGACUC [hsa-mir-5695] | -1.38 | 0.286 | 0.0721 | 0.481 | 0.547
GCCUCUUCUCCAUGAGAGGC [hsa-mir-885] | 1.74 | -0.689 | -0.322 | -1.07 | -1.37
GCCUGCCCUGAGUCCCCCAGCAGGU [hsa-mir-3907] | -0.55 | 1.45 | 0.663 | 1.46 | 0.912
GCCUGCGGGCAGGAAGCGGA [hsa-mir-3928] | -0.0318 | 1.57 | 1.34 | 1.87 | 2.23
GCCUGUGUAGACGGGGACCUGCCCUGCAUGGGCACCCCCUCACUGGC [hsa-mir-6762] | -0.617 | 0.332 | 0.322 | 0.173 | 0.347
GCCUUGUGGCAUGGAGUUCAAGC [hsa-mir-107] | 0.5 | 0.468 | 0.0909 | 0.851 | 1.54
GCCUUGUUGCAUAUGGAUCAAGC [hsa-mir-103a-1] | 0.266 | -0.346 | -0.376 | -0.178 | 0.388
GCCUUUCAACAUAAUGGC [hsa-mir-548w] | 1.21 | -0.0045 | -0.214 | -0.352 | -0.827
GCGCGGGAAAGUUCGGGAACGCGCG [hsa-mir-4479] | 0.488 | 0.386 | 0.246 | 0.854 | 1.72
GCGGCCGCGCUGGCCGCU [hsa-mir-3665] | 1.02 | -0.0786 | -0.548 | -0.0622 | 0.524
GCGGCUGUUAAUGAUUUUAACAGUUGC [hsa-mir-449c] | 0.888 | -0.84 | -0.119 | -1.14 | -1.2
GCGGGAGCCAGGCCGC [hsa-mir-3185] | 3.26 | -0.123 | 0.0586 | -0.0208 | 0.896
GCGGGGAACGAGGCCGUCGGCCAUUUUGUG [hsa-mir-632] | 1.04 | 1.2 | 0.912 | 1.59 | 1.58
GCGGGGGUGGGGGCCUCGCCCUGCUUGGGCCCUCCCUGAC [hsa-mir-6821] | 0.419 | 2.12 | 1.75 | 2.47 | 2.31
GCGGGGUGUGGUGGGGCUGGGGCUGGCCCCCUCCUCACACCUC [hsa-mir-6800] | 1.21 | 4.74 | 5.35 | 4.29 | 3.96
GCGGUUUUUGCCAUUACUUUUCAUUUUUACCAUUAAAAGUAAUGGCAAAAAGCAU [hsa-mir-548q] | -0.112 | -0.964 | 0.225 | -1.09 | -0.56
GCGGUUUUUGCUAUUGGUUUUAAUGGC [hsa-mir-548au] | -0.139 | -0.185 | -0.189 | -0.205 | -0.183
GCGUCACGUGCACCCAAGUGACGC [hsa-mir-6786] | -0.196 | 0.576 | 0.171 | 0.688 | 0.796
